According to US20090105152A1:
Numbered stars: 1 amine (or outer) side, 2 acyl side, 3 side chain; on linkers, the order of the positions; unused ones are H or OH. Square brackets hold non-standard residues; d marks the D form. Asp(NHBzl) = N-omega-benzylasparagine, O=C(C[C@H](N[*:1])C(=O)[*:2])NCc1ccccc1; Phe(3R-OH) = O=C([C@@H](N[*:1])[C@H](O[*:3])c1ccccc1)[*:2]; Phe(3-Me) = Cc1cccc(C[C@H](N)C(=O)O)c1; Phe(4-Me) = Cc1ccc(C[C@H](N)C(=O)O)cc1; Phe(2-Me) = Cc1ccccc1C[C@H](N)C(=O)O; Arg(Me) = CNC(=N)NCCC[C@H](N)C(=O)O; Ala(cPr) = N[C@@H](CC1CC1)C(=O)O; Hyp = O=C(O)[C@@H]1C[C@@H](O)CN1; αMeF = C[C@](N)(Cc1ccccc1)C(=O)O; Cit = NC(=O)NCCC[C@H](N)C(=O)O; Dab = NCC[C@H](N)C(=O)O; Dap = NC[C@H](N)C(=O)O; azaGly = NNC(=O)O

Molecular target: human OT7T175 (metastin receptor) (human) (UniProt Q969F8)
Assay: cell-based or functional assay

Sequence of human OT7T175 (metastin receptor) (human) (Q969F8 whole entry L364H): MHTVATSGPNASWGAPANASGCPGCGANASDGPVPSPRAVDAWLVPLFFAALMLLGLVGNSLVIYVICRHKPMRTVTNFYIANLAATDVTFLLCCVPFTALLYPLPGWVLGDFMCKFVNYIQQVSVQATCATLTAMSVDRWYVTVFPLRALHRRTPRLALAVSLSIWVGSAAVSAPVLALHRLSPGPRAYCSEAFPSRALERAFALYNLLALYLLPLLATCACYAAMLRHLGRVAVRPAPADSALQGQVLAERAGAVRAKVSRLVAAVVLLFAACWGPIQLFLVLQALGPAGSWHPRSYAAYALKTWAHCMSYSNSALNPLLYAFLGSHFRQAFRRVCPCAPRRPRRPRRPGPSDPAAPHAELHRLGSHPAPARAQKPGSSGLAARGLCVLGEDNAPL

Binder | intracellular Ca ion level-increasing activity [specific activity to Metastin (1-54)] (relative to Metastin (1-54))
Ac-[dY][Hyp][Cit]TF[azaGly]L[Arg(Me)]W-NH2 (SMILES CNC(=N)NCCC[C@H](NC(=O)[C@H](CC(C)C)NC(=O)NNC(=O)[C@H](Cc1ccccc1)NC(=O)[C@@H](NC(=O)[C@H](CCCNC(N)=O)NC(=O)[C@@H]1C[C@@H](O)CN1C(=O)[C@@H](Cc1ccc(O)cc1)NC(C)=O)[C@@H](C)O)C(=O)N[C@@H](Cc1c[nH]c2ccccc12)C(N)=O) [des(1)-Ac-[D-Tyr2,Hyp3,Cit4,Thr5,AzaGly7,Arg(Me)9,Trp10]MS10] | 1
Ac-[dY][Hyp][Dab]TF[azaGly]L[Arg(Me)]W-NH2 (SMILES CNC(=N)NCCC[C@H](NC(=O)[C@H](CC(C)C)NC(=O)NNC(=O)[C@H](Cc1ccccc1)NC(=O)[C@@H](NC(=O)[C@H](CCN)NC(=O)[C@@H]1C[C@@H](O)CN1C(=O)[C@@H](Cc1ccc(O)cc1)NC(C)=O)[C@@H](C)O)C(=O)N[C@@H](Cc1c[nH]c2ccccc12)C(N)=O) [des(1)-Ac-[D-Tyr2,Hyp3,Dab4,Thr5,AzaGly7,Arg(Me)9,Trp10]MS10] | 1
Ac-[dY][Hyp]RTF[azaGly]L[Arg(Me)]W-NH2 (SMILES CNC(=N)NCCC[C@H](NC(=O)[C@H](CC(C)C)NC(=O)NNC(=O)[C@H](Cc1ccccc1)NC(=O)[C@@H](NC(=O)[C@H](CCCNC(=N)N)NC(=O)[C@@H]1C[C@@H](O)CN1C(=O)[C@@H](Cc1ccc(O)cc1)NC(C)=O)[C@@H](C)O)C(=O)N[C@@H](Cc1c[nH]c2ccccc12)C(N)=O) [des(1)-Ac-[D-Tyr2,Hyp3,Arg4,Thr5,AzaGly7,Arg(Me)9,Trp10]MS10] | 1.4
Ac-[dY][dW][Asp(NHBzl)]TF[azaGly]L[Arg(Me)]W-NH2 (SMILES CNC(=N)NCCC[C@H](NC(=O)[C@H](CC(C)C)NC(=O)NNC(=O)[C@H](Cc1ccccc1)NC(=O)[C@@H](NC(=O)[C@H](CC(=O)NCc1ccccc1)NC(=O)[C@@H](Cc1c[nH]c2ccccc12)NC(=O)[C@@H](Cc1ccc(O)cc1)NC(C)=O)[C@@H](C)O)C(=O)N[C@@H](Cc1c[nH]c2ccccc12)C(N)=O) [des(1)-Ac-[D-Tyr2,D-Trp3,Asp(NHBzl)4,Thr5,AzaGly7,Arg(Me)9,Trp10]MS10] | 3.6
Ac-[dY][Hyp]NTF[azaGly][Ala(cPr)][Arg(Me)]W-NH2 (SMILES CNC(=N)NCCC[C@H](NC(=O)[C@H](CC1CC1)NC(=O)NNC(=O)[C@H](Cc1ccccc1)NC(=O)[C@@H](NC(=O)[C@H](CC(N)=O)NC(=O)[C@@H]1C[C@@H](O)CN1C(=O)[C@@H](Cc1ccc(O)cc1)NC(C)=O)[C@@H](C)O)C(=O)N[C@@H](Cc1c[nH]c2ccccc12)C(N)=O) [des(1)-Ac-[D-Tyr2,Hyp3,Thr5,AzaGly7,Ala(cPr)8,Arg(Me)9,Trp10]MS10] | 0.6
{4‑ureidobenzoyl}-F[azaGly]L[Arg(Me)]W-NH2 [des(1-5)-4-Ureidobenzoyl-[AzaGly7,Arg(Me)9,Trp10]MS10] | 1.3
Ac-[dY][Hyp]N[dT]F[azaGly]L[Arg(Me)]W-NH2 [des(1)-Ac-[D-Tyr2,Hyp3,D-Thr5,AzaGly7,Arg(Me)9,Trp10]MS10] | 0.9
Ac-[dY][Hyp][Dap]TF[azaGly]L[Arg(Me)]W-NH2 (SMILES CNC(=N)NCCC[C@H](NC(=O)[C@H](CC(C)C)NC(=O)NNC(=O)[C@H](Cc1ccccc1)NC(=O)[C@@H](NC(=O)[C@H](CN)NC(=O)[C@@H]1C[C@@H](O)CN1C(=O)[C@@H](Cc1ccc(O)cc1)NC(C)=O)[C@@H](C)O)C(=O)N[C@@H](Cc1c[nH]c2ccccc12)C(N)=O) [des(1)-Ac-[D-Tyr2,Hyp3,Dap4,Thr5,AzaGly7,Arg(Me)9,Trp10]MS10] | 0.9
Ac-[dY][Hyp]GTF[azaGly]L[Arg(Me)]W-NH2 (SMILES CNC(=N)NCCC[C@H](NC(=O)[C@H](CC(C)C)NC(=O)NNC(=O)[C@H](Cc1ccccc1)NC(=O)[C@@H](NC(=O)CNC(=O)[C@@H]1C[C@@H](O)CN1C(=O)[C@@H](Cc1ccc(O)cc1)NC(C)=O)[C@@H](C)O)C(=O)N[C@@H](Cc1c[nH]c2ccccc12)C(N)=O) [des(1)-Ac-[D-Tyr2,Hyp3,Gly4,Thr5,AzaGly7,Arg(Me)9,Trp10]MS10] | 0.7

More lines, now with the values ahead:

intracellular Ca ion level-increasing activity [specific activity to Metastin (1-54)] (relative to Metastin (1-54)) | Binder
0.8 | Ac-[dY][Hyp]NT[Phe(4-Me)][azaGly]L[Arg(Me)]W-NH2 (SMILES CNC(=N)NCCC[C@H](NC(=O)[C@H](CC(C)C)NC(=O)NNC(=O)[C@H](Cc1ccc(C)cc1)NC(=O)[C@@H](NC(=O)[C@H](CC(N)=O)NC(=O)[C@@H]1C[C@@H](O)CN1C(=O)[C@@H](Cc1ccc(O)cc1)NC(C)=O)[C@@H](C)O)C(=O)N[C@@H](Cc1c[nH]c2ccccc12)C(N)=O) [des(1)-Ac-[D-Tyr2,Hyp3,Thr5,Phe(4Me)6,AzaGly7,Arg(Me)9,Trp10]MS10]
1 | Ac-[dY][Hyp]NT[Phe(3R-OH)][azaGly]L[Arg(Me)]W-NH2 (SMILES CNC(=N)NCCC[C@H](NC(=O)[C@H](CC(C)C)NC(=O)NNC(=O)[C@@H](NC(=O)[C@@H](NC(=O)[C@H](CC(N)=O)NC(=O)[C@@H]1C[C@@H](O)CN1C(=O)[C@@H](Cc1ccc(O)cc1)NC(C)=O)[C@@H](C)O)[C@H](O)c1ccccc1)C(=O)N[C@@H](Cc1c[nH]c2ccccc12)C(N)=O) [des(1)-Ac-[D-Tyr2,Hyp3,Thr5,threo-Ser(3Phenyl)6,AzaGly7,Arg(Me)9,Trp10]MS10]
0.7 | Ac-[dY][Hyp]NT[Phe(3-Me)][azaGly]L[Arg(Me)]W-NH2 (SMILES CNC(=N)NCCC[C@H](NC(=O)[C@H](CC(C)C)NC(=O)NNC(=O)[C@H](Cc1cccc(C)c1)NC(=O)[C@@H](NC(=O)[C@H](CC(N)=O)NC(=O)[C@@H]1C[C@@H](O)CN1C(=O)[C@@H](Cc1ccc(O)cc1)NC(C)=O)[C@@H](C)O)C(=O)N[C@@H](Cc1c[nH]c2ccccc12)C(N)=O) [des(1)-Ac-[D-Tyr2,Hyp3,Thr5,Phe(3Me)6,AzaGly7,Arg(Me)9,Trp10]MS10]
0.6 | Ac-[dY][Hyp]NT[Phe(2-Me)][azaGly]L[Arg(Me)]W-NH2 (SMILES CNC(=N)NCCC[C@H](NC(=O)[C@H](CC(C)C)NC(=O)NNC(=O)[C@H](Cc1ccccc1C)NC(=O)[C@@H](NC(=O)[C@H](CC(N)=O)NC(=O)[C@@H]1C[C@@H](O)CN1C(=O)[C@@H](Cc1ccc(O)cc1)NC(C)=O)[C@@H](C)O)C(=O)N[C@@H](Cc1c[nH]c2ccccc12)C(N)=O) [des(1)-Ac-[D-Tyr2,Hyp3,Thr5,Phe(2Me)6,AzaGly7,Arg(Me)9,Trp10]MS10]
1.4 | Ac-[dY][Hyp]NT[αMeF][azaGly]L[Arg(Me)]W-NH2 (SMILES CNC(=N)NCCC[C@H](NC(=O)[C@H](CC(C)C)NC(=O)NNC(=O)[C@](C)(Cc1ccccc1)NC(=O)[C@@H](NC(=O)[C@H](CC(N)=O)NC(=O)[C@@H]1C[C@@H](O)CN1C(=O)[C@@H](Cc1ccc(O)cc1)NC(C)=O)[C@@H](C)O)C(=O)N[C@@H](Cc1c[nH]c2ccccc12)C(N)=O) [des(1)-Ac-[D-Tyr2,Hyp3,Thr5,αMePhe6,AzaGly7,Arg(Me)9,Trp10]MS10]
